Reference: patent US20260274985A1 (MYTHIC THERAPEUTICS, published 2026)
Residue numbers refer to the chain shown, from its start.

T1: Human TROP2 Protein, His Tag (Acro Biosystems) (human, UniProt P09758 27-274)
T1 construct: not shown: His tag
T1 sequence (looked up): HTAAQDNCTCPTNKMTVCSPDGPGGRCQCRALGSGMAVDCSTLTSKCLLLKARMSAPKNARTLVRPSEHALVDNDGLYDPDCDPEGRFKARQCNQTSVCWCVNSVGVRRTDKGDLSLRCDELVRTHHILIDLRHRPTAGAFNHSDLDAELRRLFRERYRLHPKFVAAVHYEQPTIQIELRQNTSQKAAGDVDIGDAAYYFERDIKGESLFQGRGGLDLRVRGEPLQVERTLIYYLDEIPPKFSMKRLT

T2: Human TROP2 Protein, His Tag (Acro Biosystems) (human, UniProt P09758 27-274)
T2 construct: Soluble analyte of the Octet assay; also called TACSTD2; not shown: His tag
T2 sequence (looked up): T1 sequence (looked up)

B1: MYT12313 (antibody, V domains shown)
VH: QVQLQQSGSELKKPGASVKVSCKASGYTFTNYGMNWVKQAPGQGLKWMGWINTYTGEPTYTHDHKGRFAFSLDTSVSTAYLQISSLKADDTAVYFCARGGFGSSYWYFDVWGQGSLVTVSS
VL: DIQLTQSPSSLSASVGDRVSITCKASQDVSIAVAWYQQKPGKAPKLLIYSASYRYTGVPDRFSGSGSGTDFTLTISSLQPEDFAVYYCQQHYITPLTFGAGTKVEIK
notes: sacituzumab VH 62, 64 -> H
B2: MYT12324 (antibody, V domains shown)
VH: B1 VH with G33H, Y60H, H62D, H64F, G66H
VL: B1 VL
notes: sacituzumab VH 33, 60, 66 -> H
B3: MYT12334 (antibody, V domains shown)
VH: B1 VH with H62D, H64F
VL: B1 VL with S30H, S52H
notes: sacituzumab VL 30, 52 -> H
B4: MYT12336 (antibody, V domains shown)
VH: B1 VH with H62D, H64F
VL: B1 VL with S30H, Q89H
notes: sacituzumab VL 30, 89 -> H
B5: MYT12328 (antibody, V domains shown)
VH: B1 VH with Y60H, H62D, K65H
VL: B1 VL
notes: sacituzumab VH 60, 64, 65 -> H
B6: MYT12329 (antibody, V domains shown)
VH: B1 VH with Y60H, H62D, G66H
VL: B1 VL
notes: sacituzumab VH 60, 64, 66 -> H
B7: MYT12314 (antibody, V domains shown)
VH: B1 VH with H64F, K65H
VL: B1 VL
notes: sacituzumab VH 62, 65 -> H
B8: MYT12316 (antibody, V domains shown)
VH: B1 VH with H62D, D63H
VL: B1 VL
notes: sacituzumab VH 63, 64 -> H
B9: MYT12315 (antibody, V domains shown)
VH: B1 VH with H64F, G66H
VL: B1 VL
notes: sacituzumab VH 62, 66 -> H
B10: MYT12340 (antibody, V domains shown)
VH: B1 VH with H62D, H64F
VL: B1 VL with V33H, A51H
notes: sacituzumab VL 33, 51 -> H
B11: MYT12341 (antibody, V domains shown)
VH: B1 VH with H62D, H64F
VL: B1 VL with V33H, S52H
notes: sacituzumab VL 33, 52 -> H
B12: MYT12325 (antibody, V domains shown)
VH: B1 VH with G33H, H62D, K65H
VL: B1 VL
notes: sacituzumab VH 33, 64, 65 -> H
B13: MYT12333 (antibody, V domains shown)
VH: B1 VH with H62D, H64F
VL: B1 VL with S30H, A51H
notes: sacituzumab VL 30, 51 -> H
B14: MYT12332 (antibody, V domains shown)
VH: B1 VH with H62D, H64F
VL: B1 VL with S30H, V33H
notes: sacituzumab VL 30, 33 -> H
B15: MYT12326 (antibody, V domains shown)
VH: B1 VH with G33H, H62D, G66H
VL: B1 VL
notes: sacituzumab VH 33, 64, 66 -> H
B16: MYT12339 (antibody, V domains shown)
VH: B1 VH with H62D, H64F
VL: B1 VL with S30H, I93H
notes: sacituzumab VL 30, 93 -> H
B17: MYT12335 (antibody, V domains shown)
VH: B1 VH with H62D, H64F
VL: B1 VL with S30H, Y53H
notes: sacituzumab VL 30, 53 -> H
B18: MYT13236 (antibody, V domains shown)
VH: B1 VH with H62D, D63H, H64F
VL: B1 VL with A51H, S52H
notes: Sacituzumab HC-LC pairing variant; IgG
B19: MYT13206 (antibody, V domains shown)
VH: B1 VH with H62D, H64F, K65H
VL: B1 VL with Q89H
notes: as for B18
B20: MYT13246 (antibody, V domains shown)
VH: B1 VH with H62D, H64F, K65H
VL: B1 VL with A51H, Q89H
notes: as for B18
B21: MYT13226 (antibody, V domains shown)
VH: B1 VH with Y60H, H62D, H64F
VL: B1 VL with I93H
notes: as for B18
B22: MYT13244 (antibody, V domains shown)
VH: B1 VH with H62D, D63H, H64F
VL: B1 VL with A51H, Q89H
notes: as for B18
B23: MYT13205 (antibody, V domains shown)
VH: B1 VH with H62D
VL: B1 VL with Q89H
notes: as for B18
B24: MYT13229 (antibody, V domains shown)
VH: B1 VH with H62D
VL: B1 VL with I93H
notes: as for B18
B25: MYT13234 (antibody, V domains shown)
VH: B1 VH with Y60H, H62D, H64F
VL: B1 VL with A51H, S52H
notes: as for B18
B26: MYT13230 (antibody, V domains shown)
VH: B1 VH with H62D, H64F, K65H
VL: B1 VL with I93H
notes: as for B18
B27: MYT13213 (antibody, V domains shown)
VH: B1 VH with H62D
VL: B1 VL with H91A
notes: as for B18
B28: MYT13215 (antibody, V domains shown)
VH: B1 VH with H62D, H64F, G66H
VL: B1 VL with H91A
notes: as for B18
B29: MYT13243 (antibody, V domains shown)
VH: B1 VH with H64F
VL: B1 VL with A51H, Q89H
notes: as for B18
B30: MYT13242 (antibody, V domains shown)
VH: B1 VH with Y60H, H62D, H64F
VL: B1 VL with A51H, Q89H
notes: as for B18
B31: MYT13245 (antibody, V domains shown)
VH: B1 VH with H62D
VL: B1 VL with A51H, Q89H
notes: as for B18
B32: MYT13227 (antibody, V domains shown)
VH: B1 VH with H64F
VL: B1 VL with I93H
notes: as for B18
B33: MYT13224 (antibody, V domains shown)
VH: B1 VH with Y32H, H62D, H64F
VL: B1 VL with I93H
notes: as for B18
B34: MYT13228 (antibody, V domains shown)
VH: B1 VH with H62D, D63H, H64F
VL: B1 VL with I93H
notes: as for B18
B35: MYT13214 (antibody, V domains shown)
VH: B1 VH with H62D, H64F, K65H
VL: B1 VL with H91A
notes: as for B18
B36: MYT13247 (antibody, V domains shown)
VH: B1 VH with H62D, H64F, G66H
VL: B1 VL with A51H, Q89H
notes: as for B18
B37: MYT13207 (antibody, V domains shown)
VH: B1 VH with H62D, H64F, G66H
VL: B1 VL with Q89H
notes: as for B18
B38: MYT13212 (antibody, V domains shown)
VH: B1 VH with H62D, D63H, H64F
VL: B1 VL with H91A
notes: as for B18
B39: MYT13240 (antibody, V domains shown)
VH: B1 VH with Y32H, H62D, H64F
VL: B1 VL with A51H, Q89H
notes: as for B18
B40: MYT13225 (antibody, V domains shown)
VH: B1 VH with G33H, H62D, H64F
VL: B1 VL with I93H
notes: as for B18
B41: MYT13204 (antibody, V domains shown)
VH: B1 VH with H62D, D63H, H64F
VL: B1 VL with Q89H
notes: as for B18
B42: MYT13231 (antibody, V domains shown)
VH: B1 VH with H62D, H64F, G66H
VL: B1 VL with I93H
notes: as for B18
B43: MYT13211 (antibody, V domains shown)
VH: B1 VH with H64F
VL: B1 VL with H91A
notes: as for B18
B44: MYT13235 (antibody, V domains shown)
VH: B1 VH with H64F
VL: B1 VL with A51H, S52H
notes: as for B18

molecular target: T1, Human TROP2 Protein, His Tag (Acro …); assay: BLI (Octet) [1/2]

binding result | Binder
binds | B1
binds | B2
binds | B3
binds | B4
binds | B5
binds | B6
binds | B7
binds | B8
binds | B9
binds | B10
binds | B11
binds | B12
binds | B13
binds | B14
binds | B15
binds | B16
binds | B17

molecular target: T2, Human TROP2 Protein, His Tag (Acro …); assay: BLI (Octet) [1/2]

binding result | Binder
binds | B18
binds | B19
binds | B20
binds | B21
binds | B22
binds | B23
binds | B24
binds | B25
binds | B26
binds | B27
binds | B28
binds | B29
binds | B30
binds | B31
binds | B32
binds | B33
binds | B34
binds | B35
binds | B36
binds | B37
binds | B38
binds | B39
binds | B40
binds | B41
binds | B42
binds | B43
binds | B44
